Assays:
Assay in all cases: cell-based or functional assay
chymotrypsin = target: chymotrypsin
human α-thrombin (human) = human α-thrombin (human) (UniProt P00734)
neuropsin = target: neuropsin

## 6xHis-PEBP (recombinant mouse PEBP with a 6xHis-tag at the N-terminus) (from UniProt P70296 2-187)
chymotrypsin
  inhibition of amidolytic activity (chromogenic substrate, 405 nm): 25%
Human α-thrombin (human)
  inhibition of amidolytic activity (chromogenic substrate, 405 nm): 55%
neuropsin
  inhibition of amidolytic activity (chromogenic substrate, 405 nm): 70%

From US20060177432A1
